From the DeepSol protein solubility set

Test: soluble on expression in E. coli; label from the status in PepcDB or PDB records
With “MAHHHHHHMLRARTLLLFMRPEAAAAELRRLLPLLSFAGRRTGAATHSVASLIVSTAYSATAARSVTNHSRDCPVLSKKLPLPLIGKESSFAARPCLNCVRERVHYVSSLSFCDYFEKKCAEAQHYRNGASSNGVVGTAALPKLLLEAIERSYGSVAAFKDSVMLHSTGAMSPGRLWIVYTPPISGSEHGAVRLLNLPACKVPLVHGLWPLAVINMTEKRLCEQIACRSGKGGDAVDADDAPAWRHAARTRKTLGALATTEEGNDRAGNVAQVKLSSIQSAIAEEALCAMNWKFVETQLTSALAYYSSKERTQTQREHRKEKEHVAAVRAMSQLKNSGAVIHATDSVTITSSNSFVASSASEPNLSAAAAVTSSSAKAENSALGEANTQTAAVAAPSAEATAANTASNSAQPADNTATGAAAAEPRAVQQADGTWEYHYNNGSVTKALPDGTKVFQTESLTTTVFVNGDTLFEYPNNTSILDRADGVRVITYADGTKKEERLK” the “soluble on expression in E. coli” value was “soluble”. For “MAHHHHHHSLRLTPLPQPKRIHYMVKVGDTLSGIFAQLGVPYSILQKILSVDLDHLQLDMIQPGEELELMMDDMGQLSRLIYHMSIVEKAIYTRENDGSFSYDFQEISGEWREILFSGEINGSFSVSARRVGLTSSQVANITQVMKDKIDFSRSLRAGDRFDILVKQQYLGEHNTGNSEIKAISFKLAKGDVSAFLAEDGRFYDRAGNSLERAFNRYPVDKAYRQITSGFNPKRKHPVTGRVVPHNGTDFATPIGAPVYSTGDGKVIVVRKHPYAGNYLVIEHNSVYKTRYLHLDKILVKKGQLVKRGQKIALAGATGRLTGPHLHFEVLVRNRPVDAMKADLPIAKSLSSNQKTSFLARVSEFDHLVQANQQEVALDEG”, the “soluble on expression in E. coli” value was “soluble”. With “MGSDKIHHHHHHMATGSNIRTYFQGSWHEGDAPIIRAADHGAWLGSGVFDGARYFDGMAPDLEAHCARVNRSAEALMLTPTVSTQDMVEIVREGLKAYGPDQAVYIRPMYWGIDGDPTAIIPQADSTGFAVCLEEIPMAPATASATLTTTRFRRPVLEDAVVNAKAGCLYPNNARMLREARSKGFTNALVADALGNVAETATANIFMVKDGEVFTPIANGTFLAGITRARHIKNLRADGVPVHETVLSFADFHAADEVFMSGNMSKVTPVTALDDTQYQIGPIARRARALYWDWAKSTA” the “soluble on expression in E. coli” value was “not soluble”. In the case of “MFPVSSIGNDISSDLVRRKMNDLPESPTGNNLEALAPGIEKLKQTSIEMVTLLNTLQPGGKCIITGDFQKELAYLQNVILYNVSSLRLDFLGYNAQIIQRSDNTCELTINEPLKNQEISTGNININCPLKDIYNEIRRLNVIFSCGTGDIVDLSSLDLRNVDLDYYDFTDKHMANTILNPFKLNSTNFTNANMFQVNFVSSTQNATISWDYLLKITPVLISISDMYSEEKIKFVESCLNEPGDITEEQLKIMRFAIIKSIPRATLTDKLENELTKEIYKSSSKIINCLNRIKLTEMKEFSSEKIYDYIDIIIEDYENTKENAYLVVPQINYTMDLNIEDSSSEELLSDNTLEKDENSPDNGFEVGEYNTYEAYNSEKQYFTREDYTYDYDLLNAI”, the “soluble on expression in E. coli” value is reported as “not soluble”. With “MDSGLKALEAVLAIARKGSFRAAALDLGVSTTALSHTVARLEAGLGVRLFHRTTRSVALTEAGREFVARIAPALTEIRAALETVRSQRATPSGMLRINASVQAGRAVAPLVLAFLRRYPEMRVDLVTEGRLLDIVAEGFDMGIRPADLVPRDMIALPLGLPVRHAVVASPDWLVRHPEPRSPADLDPDACLRVRLPNGALLRWPFQKDGVPLPFEASGRLTVDEAAIARAAVLDGAGIGYFIEADVAEDIAAGRMIRLLEDWTPNRPGFSLYYSGRRNPSAGFTAFLAMAREREAA” the “soluble on expression in E. coli” value was “not soluble”. For “MRGSHHHHHHGSVTTKRYTLPPLPYAYNALEPYISAEIMQLHHQKHHQGYVNGANAALEKLEKFRKGEAQIDIRAVLRDLSFHLNGHILHSIFWPNMAPPGKGGGKPGGKIADLINKFFGSFEKFKEEFSQAAKNVEGVGWAILVYEPLEEQLLILQIEKHNLMHAADAQVLLALDVWEHAYYLQYKNDRGSYVDNWWNVVNWDDVERRLQKALNGQIALKL”, the “soluble on expression in E. coli” value was “soluble”. For “LREQVQDLFNKKYGEALGIKYPVQVPYKRIKSNPGSVIIEGLPPGIPFRKPCTFGSQNLERILAVADKIKFTVTRPFQGLIPKPDE”, the “soluble on expression in E. coli” value was “soluble”. With “MGSDKIHHHHHHMLTCDVFFASKNKKGEEVCGDSIKVKRESEKIVVSVSDGLGSGIKASILSTLTATIASTMLMNGLPVTDVFRTILATLPICRVRKISYSNLCSVVCDFKNNTCTVVEYEFPVVMLFKGERRVFPEKQGLEIEGKKVFVWQFRSEAGTLLLLATDGLSQAGMGTDLFPLGFGVENIEKEMKHLLKNHVSPENIVRHFVKLAEKLDQEVRGDDTLVACLNFREKRILNLFVGPPEDRKKDEEYVRTFLSLPGKKIVCGGTTGQIFERVTGKKVEIDLYTLSENSPPVGYMEGIDLMTEGIVTLTQVFRYLEGQSEELGYGAKFIVKSLLEADEINFFVGRAINPAHQNPLFSHDISLKFRLVKDIAQILREKGKIVNVQYC” the “soluble on expression in E. coli” value was “not soluble”. With “MGHHHHHHSHMADQKKVSEAAKEREIKISSSDNEIFLVPRNVIRLSNTINTLLMDLGLDDEEGTNAEPIPVQNVTASILKKVISWCNHHHSDPISTEDSDNREKRTDDIGSWDVEFLKVDQGTLFELILAANYLDIKGLLDVTCKTVANMIKGKSPEEIRRTFNIKNDFTPEEEEQIRKENAWCED” the “soluble on expression in E. coli” value was “soluble”. In the case of “MYNDRHLSLFHLLFRAKIQRAINYFFMITFSEIQLLRGGKPLLEQASATIHPGDKVGLVGKNGCGKSTLFALLKDELTIDAGSFSKPAHWELAWVAQETPALDRTALEYVIDGDREYRELERQLMDAEAADNGTKVADLHGKIEMVGGYSIRARASELLDGLGFTQEQMSWSLTQFSGGWRMRLNLAQALICRSDLLLLDEPTNHLDLDAVMWLERWLQSYPGTLILISHDRDFLDPIVNRIVHIENQTLNEYTGNYSSFETQRAQKMLQQQAIYQKQQKQMAHMQSYIDRFRYKASKARQAQSRIKALERMEKVLPAQFDNPFSFEFREPAALPNPILMMDQVAAGYGDHLILEKIRLNLVPGSRIGLLGRNGAGKSTLIKLLSGELKPQSGDCTYSQGVKIGYFAQHQLETLHPEETPLQHMMQIAPDKNELELRNYLGSFGFHGEKALEKVAPFSGGEKARLVLALIVWQKPNLLLLDEPTNHLDLDMRQALTLALQSYEGAMVIVSHDRYLLRATTDDLYLVHDHQVGPFDGDLNDYYKWLTDQQKAERKETQPTNTANSANSAAAKKEQKRREADFRKLTAPIRKKLTQLEEKLDKLNHVVSEMEAQLSDTSLYEAQNKATLTEVLAKQAAAKSELEQVELEWMAEQETLEEMERKFNG”, the “soluble on expression in E. coli” value is reported as “not soluble”. In the case of “MGSDKIHHHHHHMTIDPIKSTTLAQFDAAEQTALAQLALKVQHAFVTGAGGFLGKAICLRLLAAGIKVTGFARGHYPELEALGVVMLQGDLVNKDQLQQAMQGCDIVFHVASKAGVWGDRDSYFCPNVKGAANVIAACKTLKINKLVYTSTPSVTFAGQDESGIDESTPYATSFLNYYAHSKAIAEKMMLDANQVGDVSVENTAVTQVTQVTQATTATISDNNLATTQVAIPNTSQVTAPYALKTVALRPHLIWGPGDPHLVPRVLARCRLDKLKLVGHEDKLVDTIYIDNAAYAHVLAALELCQAKPKCQGKAYFLSNDEPITMAKMLNLILACDALPPVTKRVPQSVAYVAGAVLETVYFLLKKQEEPMMTRFVARQLSCSHYFDISAAKRDLGYRALVSINEGMARLKASL”, the “soluble on expression in E. coli” value is reported as “not soluble”. In the case of “MAVRIRLAKFGRKHHPIYRIVVMDAKSPREGKYIDILGTYDPKRKVLINVYPEKVKEWVLKGVELSHRAKAILWNHGILKEVVPEGYEMKRVGDYYVFEKRESKKSKGGEAA”, the “soluble on expression in E. coli” value is reported as “soluble”. With “MFSGGRKVKWNHFGKKYALRFSDYEMEYADLYDALLKKVHEVRADFEGDLAFIDQYGRQVIVSSDKDVREAIQQSKNKLKLHTTLRDGHVIAAADMAEAARGRPARSQSVPPERSYNMYPQRSPSSMDSAPDTYRHHPQQMTRAMSPPPMSTTTGSTHSPPLRQIGETVKTTYSHSGSYGGLYPGGYKGYPYGGGYSNSILYGMPPHNGMLWRFLANPFPFGNAQTRSFIGPNKYHHFGGYNHMYSSGFGGPVW” the “soluble on expression in E. coli” value was “not soluble”. In the case of “MKIMIIGATGMAGQALVTTALNRGHQVVAVARSAEKLATLPSNPNLTSIVRDAFNLTTTDLSAVDAVVDAFATAPDHAYLHVDLATHLISQLRETTTPRVAFILGAGSLTTGDDAHLFVHDLEQDPHAASFISVPQNQLKELTFLRDVDNVNWFGVSPAADFHPGEAQPALLGTDTLLFNDQQQSGTSAGTMAVAILDELENPLEHHHHHH”, the “soluble on expression in E. coli” value is reported as “not soluble”. For “MSYYHHHHHHDYDIPTTGNLYFQGAMVAISFRPTADLVDDIGPDVRSCDLQFRQFGGRSQFAGPISTVRCFQDNALLKSVLSQPSAGGVLVIDGAGSLHTALVGDVIAELARSTGWTGLIVHGAVRDAAALRGIDIGIKALGTNPRKSTKTGAGERDVEITLGGVTFVPGDIAYSDDDGIIVV”, the “soluble on expression in E. coli” value was “soluble”. With “MAHHHHHHMRAVQLVQGRARMCCVPFLFWVCPPPHLFSLSLPTPSLRSCGARTSCVAERSHASRRGGCGLPSPLPAQPTSPPDTRTGDTCICAFSFTPDEVSQTMTDRCYRTLGLDRGAAEADIKRAYRRKALLFHPDRNPNGAEAFKALQGDYEEALTDARRRGARGGGVPPFSSMASPSWDPAAPAAGAAYRFARAAGTACPPFFPEPSPAPLFTDEELFADSIPGGWRDVCARRGASARGGDKAGGRNNAAGRTEEINGSNSCCSQEAAAADARWRRAHGARVPVSAYTFSGPVPPPPPLPSQPSPHLSSSSFTSFCTHTRARASVAGTGSRLSTQAQRNRFVSRECMWKSSSAEALSLDAKQEAGGAGKVGRSRGCDGYTGQNREPVCGSDTGESAEDRVYREAVLLQRRMPALSGKSRGAAAERTRTHSQSDRAFSTEGVPVGSNATFPATRGVYHQRSDLHTSSTTTTTTTSSSTKGERLEAALSQREALCRQCRDTETTLQHEVDDDHAPAFSDDGDASAHPDKGDGAGSTNAALGPSAAGPLAASGRDTSRAGDPFPVKQSACPESNSDDRLRGDLPHRDRIPDECPLLQSENPRGRYTPNPAEVAEMSDMEVYLLASVAEDINQKTQTVMTARLSKEPYSCSASTPRAHQHVYFTCTHPSACEDCYASGVSKCPLCGASGVDRSSPPPSATTTSSSIEKGGTTGASGACTGTRASLASSSAPSPETMYEPVRVHSVLTCGDADA” the “soluble on expression in E. coli” value was “not soluble”. With “MSPDEDLRLLYLRLIPQLAENRPEFQQAIADSPLFTAYMKLLKRQAELSPRILSALLSAISSIVRSHLPAYLKFQAKNGLTATEKLIQSTKDHKNAVKAGRMIVSFLYTLTDLQGIDEITEEIKNSILKIYTLLDGRSRFVDRADDSEETKEFYEETMKMIKFEIMQMHPDIITPQTRKLLEEHFKESNLRAGLMPIGGWPVIPKNEWPQPPQPPCHKANKNAEPKKEPEPAKKVAPKQETKVDQEAAELARKIQIEEDKTRKRHEIVARFSILDIYTKEELAEKLKLDAEMEMAEAQKVLKEIR” the “soluble on expression in E. coli” value was “not soluble”. With “MGSSHHHHHHSQDPLVPRGSGSDYIIKEKTVLLQKKDSEGFGFVLRGAKAQTPIEEFTPTPAFPALQYLESVDEGGVAWRAGLRMGDFLIEVNGQNVVKVGHRQVVNMIRQGGNTLMVKVVMVTRHPDMDEA” the “soluble on expression in E. coli” value was “soluble”. For “SLIENSHVKKDDIWPSGGQMTVKDLTAKYTEGGNAILENISFSISPGQRVGLLGRTGSGKSTLLSAFLRLLNTEGEIQIDGVSWDSITLEQWRKAFGVIPQKVFIFSGTFRKNLDPYEQWSDQEIWKVADEVGLRSVIEQFPGKLDFVLVDGGCVLSHGHKQLMCLARSVLSKAKILLLDEPSAHLDPVTYQIIRRTLKQAFADCTVILCEARIEAMLECDQFLVIEENKVRQYDSIQKLLNERSDFRQAISPSDGPSAQLEKELQALEKENAQLEWELQALEKELAQ”, the “soluble on expression in E. coli” value was “soluble”.
